Data: article PMC7087056 (The Yale Journal of Biology and Medicine, 2020)

Target: T1, His6-K10^C401A-2B (human keratin 10 helix 2B domain with C401A, His6 tag kept) (human, UniProt P13645 337-456, C401A)
T1 sequence (looked up): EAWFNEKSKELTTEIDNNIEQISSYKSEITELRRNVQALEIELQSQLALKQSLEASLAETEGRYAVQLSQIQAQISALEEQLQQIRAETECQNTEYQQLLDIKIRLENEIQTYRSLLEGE
Assay: pull-down

stoichiometry N: 1
B1: human keratin 1 helix 2B domain (K1-2B) (domain or fragment, UniProt P04264 370-489, looked up)
chain: ESLYQSKYEELQITAGRHGDSVRNSKIEISELNRVIQRLRSEIDNVKKQISNLQQSISDAEQRGENALKDAKNKLNDLEDALQQAKEDLARLLRDYQELMNTKLALDLEIATYRTLLEGE
